Biological target: APC15R (the 15-aa repeat region of Adenomatous polyposis coli, repeats A-D with the linker region) (human)
Assay: cross-linking

Sequence of APC15R (the 15-aa repeat region of Adenomatous polyposis coli, repeats A-D with the linker region) (human) (P25054 2-2843): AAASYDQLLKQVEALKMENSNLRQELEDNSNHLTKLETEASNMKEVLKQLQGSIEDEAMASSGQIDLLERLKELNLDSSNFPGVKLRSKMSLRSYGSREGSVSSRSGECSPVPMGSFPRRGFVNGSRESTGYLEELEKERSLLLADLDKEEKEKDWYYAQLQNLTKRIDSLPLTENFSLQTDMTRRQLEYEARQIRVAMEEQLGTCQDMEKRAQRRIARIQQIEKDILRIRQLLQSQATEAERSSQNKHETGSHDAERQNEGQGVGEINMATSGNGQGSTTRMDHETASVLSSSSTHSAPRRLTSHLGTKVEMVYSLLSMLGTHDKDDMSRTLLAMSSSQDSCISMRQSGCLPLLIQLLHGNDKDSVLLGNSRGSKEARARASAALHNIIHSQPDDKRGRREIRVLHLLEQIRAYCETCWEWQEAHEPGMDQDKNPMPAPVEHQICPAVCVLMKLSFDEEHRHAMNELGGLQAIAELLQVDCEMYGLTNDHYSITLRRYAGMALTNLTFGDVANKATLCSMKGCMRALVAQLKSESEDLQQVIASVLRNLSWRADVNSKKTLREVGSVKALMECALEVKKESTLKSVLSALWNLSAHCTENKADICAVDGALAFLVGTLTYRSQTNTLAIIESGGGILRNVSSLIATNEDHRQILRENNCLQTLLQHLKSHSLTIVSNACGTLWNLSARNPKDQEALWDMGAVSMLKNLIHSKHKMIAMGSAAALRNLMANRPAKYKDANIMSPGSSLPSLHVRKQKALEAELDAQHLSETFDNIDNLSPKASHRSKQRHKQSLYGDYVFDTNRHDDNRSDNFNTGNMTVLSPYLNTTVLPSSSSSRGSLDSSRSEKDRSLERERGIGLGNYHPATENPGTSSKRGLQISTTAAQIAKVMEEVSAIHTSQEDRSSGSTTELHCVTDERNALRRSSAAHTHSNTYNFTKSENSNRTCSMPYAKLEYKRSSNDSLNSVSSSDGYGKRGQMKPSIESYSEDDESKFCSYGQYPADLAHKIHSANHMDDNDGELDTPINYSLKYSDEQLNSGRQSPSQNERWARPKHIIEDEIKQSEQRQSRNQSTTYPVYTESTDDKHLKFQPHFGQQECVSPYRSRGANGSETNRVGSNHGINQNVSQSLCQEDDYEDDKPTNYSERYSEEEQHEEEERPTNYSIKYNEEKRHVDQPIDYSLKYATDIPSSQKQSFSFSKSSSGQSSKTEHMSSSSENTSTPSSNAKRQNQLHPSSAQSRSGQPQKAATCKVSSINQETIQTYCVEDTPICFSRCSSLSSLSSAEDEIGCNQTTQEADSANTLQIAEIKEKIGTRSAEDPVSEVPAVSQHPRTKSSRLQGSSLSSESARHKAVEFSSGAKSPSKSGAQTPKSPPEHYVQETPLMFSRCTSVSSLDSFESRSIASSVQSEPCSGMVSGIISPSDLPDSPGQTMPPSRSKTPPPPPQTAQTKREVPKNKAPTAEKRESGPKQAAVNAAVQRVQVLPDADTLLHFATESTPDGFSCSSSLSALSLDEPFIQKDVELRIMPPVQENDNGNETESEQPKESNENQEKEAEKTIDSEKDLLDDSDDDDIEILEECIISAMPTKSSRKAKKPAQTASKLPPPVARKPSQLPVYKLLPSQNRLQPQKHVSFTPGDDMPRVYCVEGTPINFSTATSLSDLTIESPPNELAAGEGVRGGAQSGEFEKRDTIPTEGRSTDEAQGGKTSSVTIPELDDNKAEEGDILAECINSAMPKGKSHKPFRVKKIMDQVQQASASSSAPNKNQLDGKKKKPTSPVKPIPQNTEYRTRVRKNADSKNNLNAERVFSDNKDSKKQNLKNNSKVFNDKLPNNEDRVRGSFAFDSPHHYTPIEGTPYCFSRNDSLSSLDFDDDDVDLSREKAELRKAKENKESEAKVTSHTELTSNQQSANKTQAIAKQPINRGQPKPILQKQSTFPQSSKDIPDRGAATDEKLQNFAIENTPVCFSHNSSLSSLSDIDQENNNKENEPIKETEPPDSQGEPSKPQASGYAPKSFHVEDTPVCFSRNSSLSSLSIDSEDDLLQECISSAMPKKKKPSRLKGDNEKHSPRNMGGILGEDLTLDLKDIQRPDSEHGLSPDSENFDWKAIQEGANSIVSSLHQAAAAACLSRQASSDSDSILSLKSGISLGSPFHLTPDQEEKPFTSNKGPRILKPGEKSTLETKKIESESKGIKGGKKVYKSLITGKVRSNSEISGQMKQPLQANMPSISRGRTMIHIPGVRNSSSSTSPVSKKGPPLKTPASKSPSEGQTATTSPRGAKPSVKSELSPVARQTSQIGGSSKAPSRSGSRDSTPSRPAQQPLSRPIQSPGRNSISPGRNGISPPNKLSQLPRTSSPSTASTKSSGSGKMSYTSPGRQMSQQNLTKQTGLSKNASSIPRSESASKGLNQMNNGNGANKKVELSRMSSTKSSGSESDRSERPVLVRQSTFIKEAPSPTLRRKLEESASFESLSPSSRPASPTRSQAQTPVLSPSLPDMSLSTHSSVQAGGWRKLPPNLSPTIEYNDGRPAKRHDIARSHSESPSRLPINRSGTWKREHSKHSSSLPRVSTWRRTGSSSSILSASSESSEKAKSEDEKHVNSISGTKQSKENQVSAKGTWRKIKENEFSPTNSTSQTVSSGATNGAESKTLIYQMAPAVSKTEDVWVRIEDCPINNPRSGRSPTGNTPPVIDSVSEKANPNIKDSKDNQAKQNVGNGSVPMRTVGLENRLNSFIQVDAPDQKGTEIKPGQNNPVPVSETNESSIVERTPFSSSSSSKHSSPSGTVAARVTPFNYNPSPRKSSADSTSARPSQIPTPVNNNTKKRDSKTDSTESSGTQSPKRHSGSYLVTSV

“β-catenin (aa. 150–665), the central region of β-catenin (from UniProt P35222 150-665) (domain or fragment)” gave a stoichiometry N (β-catenin per APC15R) of 1.
